Experimental data from patent US20240083986A1 (published 2024).

T1: natural Bet v 1 (Indoor, Cat #NA-BV1-1) (Betula verrucosa (European white birch, …, UniProt P15494 2-160))
T1 construct: Bought natural protein purified from birch pollen; also called nBet v 1
T1 sequence: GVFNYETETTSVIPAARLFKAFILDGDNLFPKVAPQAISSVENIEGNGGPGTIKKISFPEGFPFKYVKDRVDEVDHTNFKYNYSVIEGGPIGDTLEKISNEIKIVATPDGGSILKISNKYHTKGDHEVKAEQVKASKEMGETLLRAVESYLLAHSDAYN

T2: Apple (Mal d 1, MyBiosource, Cat #MBS1224919) (Apple, UniProt P43211 2-159, limits assumed)
T2 construct: Bought reagent
T2 sequence (looked up): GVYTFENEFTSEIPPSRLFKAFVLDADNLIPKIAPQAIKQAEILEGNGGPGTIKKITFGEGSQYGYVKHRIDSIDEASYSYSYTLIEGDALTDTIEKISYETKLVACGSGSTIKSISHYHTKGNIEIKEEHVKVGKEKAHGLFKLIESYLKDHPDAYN

T3: European Hornbeam (Car b 1 isoform 2, MyBiosource, Cat #MBS1043940) (European Hornbeam, UniProt P38950 2-160, limits assumed)
T3 construct: Bought reagent
T3 sequence (looked up): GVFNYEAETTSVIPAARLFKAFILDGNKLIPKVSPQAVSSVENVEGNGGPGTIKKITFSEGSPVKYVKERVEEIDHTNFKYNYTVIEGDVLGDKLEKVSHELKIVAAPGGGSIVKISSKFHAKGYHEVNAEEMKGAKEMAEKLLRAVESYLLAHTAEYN

T4: Celery (Api g 1, MyBiosource, Cat #MBS1171376) (Celery, UniProt P49372 1-154, limits assumed)
T4 construct: Bought reagent
T4 sequence (looked up): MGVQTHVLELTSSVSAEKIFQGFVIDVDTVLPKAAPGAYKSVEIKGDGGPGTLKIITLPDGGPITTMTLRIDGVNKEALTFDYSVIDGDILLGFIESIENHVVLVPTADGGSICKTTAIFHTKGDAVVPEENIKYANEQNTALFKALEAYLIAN

T5: European Hornbeam (Car b 1 isoform 1A & 1B, MyBiosource, Cat #MBS1200018) (European Hornbeam, UniProt P38949 2-160)
T5 construct: Bought reagent
T5 sequence (looked up): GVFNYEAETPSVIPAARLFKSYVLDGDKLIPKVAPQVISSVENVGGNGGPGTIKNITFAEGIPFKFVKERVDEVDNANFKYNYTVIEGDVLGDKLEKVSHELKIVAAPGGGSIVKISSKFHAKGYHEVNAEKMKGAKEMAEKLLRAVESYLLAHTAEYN

T6: Alder (Aln g 1, MyBiosource, Cat #MBS1041484) (Alder, UniProt P38948 2-160, limits assumed)
T6 construct: Bought reagent
T6 sequence (looked up): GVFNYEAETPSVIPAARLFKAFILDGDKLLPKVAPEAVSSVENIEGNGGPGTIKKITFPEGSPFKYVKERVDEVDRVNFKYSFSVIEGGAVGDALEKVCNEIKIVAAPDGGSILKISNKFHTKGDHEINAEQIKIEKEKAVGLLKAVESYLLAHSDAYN


Tests used:
[1] = target: T1, natural Bet v 1 (Indoor, Cat #NA-BV1-1); assay: SPR Biacore, mAb captured on anti-hFc, 37C;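 also: purified anti-Bet v 1 monoclonal antibodies, HBS-ET running buffer pH 7.4, rate constants from 1:1 model fit with mass transport limitation, KD and t½ calculated from kinetic constants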
Method: Equilibrium dissociation constants (KD) for natural Bet v 1 binding to purified anti-Bet v 1 monoclonal antibodies were determined using a real-time surface plasmon resonance biosensor (SPR-Biacore) on a Biacore 4000 instrument. All binding studies were performed in 10 mM HEPES, 150 mM NaCl, 3 mM EDTA, and 0.05% v/v surfactant Tween-20, pH 7.4 (HBS-ET) running buffer at 25° C. and 37° C. […] Association (kₐ) and dissociation (kd) rate constants were determined by fitting the real-time binding sensorgrams to a 1:1 binding model with mass transport limitation using Scrubber 2.0c curve-fitting software. Binding dissociation equilibrium constants (KD) and dissociative half-lives (t½) were calculated from the kinetic rate constants as:

[2] = target: T2, Apple (Mal d 1, MyBiosource, Cat …); assay: SPR Biacore, 25C;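 also: binding of related allergens to purified monoclonal anti-Bet v 1 antibodies by surface plasmon resonance in HEPES-buffered saline pH 7.4, kinetics fitted to a 1:1 model with mass transport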
Method: (§1) Equilibrium dissociation constants (KD) for different related allergens binding to purified anti-Bet v 1 monoclonal antibodies were determined using a real-time surface plasmon resonance biosensor (SPR-Biacore) on a Biacore 4000 instrument. All binding studies were performed in 10 mM HEPES, 150 mM NaCl, 3 mM EDTA, and 0.05% v/v surfactant Tween-20, pH 7.4 (HBS-ET) running buffer at 25° C. […] Binding studies were performed on the following related allergens: Alder (Aln g 1, MyBiosource, Cat #MBS1041484), Apple (Mal d 1, MyBiosource, Cat #MBS1224919), Carrot (Dau c 1.2, MyBiosource, Cat #MBS1212920), Celery (Api g 1, MyBiosource, Cat #MBS1171376), Celery (Api g 2, MyBiosource, Cat #MBS1047880), European Hornbeam (Car b 1 isoform 1A & 1B, MyBiosource, Cat #MBS1200018), European Hornbeam (Car b 1 isoform 2, MyBiosource, Cat #MBS1043940), Hazel (Cor A 1, MyBiosource, Cat #MBS5304600), and White Oak (Que a 1, MyBiosource, Cat #MBS1258822). […] Association (kₐ) and dissociation (kd) rate constants were determined by fitting the real-time binding sensorgrams to a 1:1 binding model with mass transport limitation using Scrubber 2.0c curve-fitting software. Binding dissociation equilibrium constants (KD) and dissociative half-lives (t½) were calculated from the kinetic rate constants as:

[3] = target: T3, European Hornbeam (Car b 1 isoform 2, …); assay: SPR Biacore, 25C;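 also: binding of related allergens to purified monoclonal anti-Bet v 1 antibodies by surface plasmon resonance in HEPES-buffered saline pH 7.4, kinetics fitted to a 1:1 model with mass transport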
Method: as §1

[4] = target: T4, Celery (Api g 1, MyBiosource, Cat …); assay: SPR Biacore, 25C;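 also: binding of related allergens to purified monoclonal anti-Bet v 1 antibodies by surface plasmon resonance in HEPES-buffered saline pH 7.4, kinetics fitted to a 1:1 model with mass transport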
Method: as §1

[5] = target: T5, European Hornbeam (Car b 1 isoform 1A & …); assay: SPR Biacore, 25C;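 also: binding of related allergens to purified monoclonal anti-Bet v 1 antibodies by surface plasmon resonance in HEPES-buffered saline pH 7.4, kinetics fitted to a 1:1 model with mass transport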
Method: as §1

[6] = target: T1, natural Bet v 1 (Indoor, Cat #NA-BV1-1); assay: SPR Biacore, mAb captured on anti-hFc, 25C;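 also: rate constants from sensorgrams fitted to a 1:1 model with mass transport limitation, KD and t½ derived from kinetic constants, run in HBS-ET buffer at pH 7.4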
[7] = target: T6, Alder (Aln g 1, MyBiosource, Cat …); assay: SPR Biacore, 25C
Method: as §1

Row | 100 nM natural Bet v 1 Bound (RU) [1] [RU] | Kd [1] [nM] | koff [1] [s⁻¹] | kon [1] [M⁻¹ s⁻¹] | t½ [1] [min] | binding result [2] | binding result [3] | binding result [4] | binding result [5] | 100 nM natural Bet v 1 Bound (RU) [6] [RU] | Kd [6] [nM] | koff [6] [s⁻¹] | kon [6] [M⁻¹ s⁻¹] | t½ [6] [min] | binding result [7] | Binder
1 | 76 | 8.57 | 0.00121 | 141000 | 10 | no binding (tested: 100 nM) | no binding (tested: 100 nM) | no binding (tested: 100 nM) | no binding (tested: 100 nM) | 58 | 5.23 | 0.000503 | 96100 | 23 | – | H4H16950P (antibody, human IgG4, V domains shown) VH: QVQLVQSGAEVKKPGASVKVSCKTSGYTFTNYGITWVRQAPGQGLEWMGWISAYNGNTNYAQNVQGRVTMTTDTSTSTAYMEVRSLRSDDTAVYYCARRSSMLHFQHWGQGTLVTVSS VL: DIVMTQSPDSLAVSLGERATINCKSSQHVLYDSSNENYLAWFQQKPGQPPKLLIYWASTRESGVPDRFSGSGSGTDFTLTISSLQAEDVAVYYCQQYSSAPYTFGQGTKLEIK
2 | 65 | 2.54 | 0.00168 | 662000 | 6.8 | no binding (tested: 100 nM) | no binding (tested: 100 nM) | no binding (tested: 100 nM) | no binding (tested: 100 nM) | 57 | 1.64 | 0.00069 | 422000 | 17 | – | H4H16960P (antibody, human IgG4, V domains shown) VH: QLQLQESGPGLVRPSETLSLTCTVSGGSISSSNYWWGWIRQPPGKGLEWIGSIYYSGITYYNPSLKSRVTISADTSKDQFSLKLRSVTAADTAVYYCAKLEWLRLDFWGQGTTVTVSS VL: DIQMTQSPSSVSASVGDRVTITCRASQGISSWLVWYQQKPGKVPKLLIYAASSLQSGVPLRFSGSGSGTDFTLTISSLQPEDFATYYCQQAKSFPLTFGQGTRLEIK
3 | 66 | 2.16 | 0.00108 | 500000 | 11 | no binding (tested: 100 nM) | – | no binding (tested: 100 nM) | no binding (tested: 100 nM) | 57 | 1.06 | 0.000312 | 295000 | 37 | no binding (tested: 100 nM) | H4H16991P (antibody, human IgG4, V domains shown) VH: QVQLVQSGAEVRKPGASVKVSCKASGYTFTGYYLHWVRQAPGQGLEWMGLINPNTGGTNFAQKFQGRVTMTRDSSISAAYMELSRLRSDDTAVYYCARQHWNRYFDNWGQGTLVTVSS VL: DIQMTQSPSTLSASVGDRVTITCRASQSVGNWLAWYQQKPGKAPKLLIQEASSIESGVPSRFSGSGSGTEFTLIVSSLQPDDFATYYCQQYNSYSWTFGHGTKVEIK
4 | 84 | 2.7 | 0.000792 | 293000 | 15 | no binding (tested: 100 nM) | no binding (tested: 100 nM) | no binding (tested: 100 nM) | no binding (tested: 100 nM) | 68 | 1.34 | 0.000246 | 184000 | 47 | no binding (tested: 100 nM) | H4H17015P (antibody, human IgG4, V domains shown) VH: QVQLQESGPGLVKPSQTLSLTCTVSGGSISSADHYWSWIRQQPGKGLEWIGYISYRGTTYYNPTLESRVSISVDTFKNQFSLMLHSVTVADTAVYYCAKVLQGLVRFRDYGFDVWGQGTTVTVSS VL: DIQLTQSPPFLSASVGDRVTITCWASQDISSYLAWYQQNPGKSPKLLIYDAFTLHTGVPSRFSGSGSGTEFTLTISSLQPEDFATFYCQHLYSFPFTFGPGTKVDIK
